Reference: patent publication US20230125788, “TDP-43 MODULATING AGENTS AND USES THEREOF” (Washington University, published 2023)

T1: TDP-43 RRM1-2 (UniProt Q13148 Q13148:102-269)
T1 chain: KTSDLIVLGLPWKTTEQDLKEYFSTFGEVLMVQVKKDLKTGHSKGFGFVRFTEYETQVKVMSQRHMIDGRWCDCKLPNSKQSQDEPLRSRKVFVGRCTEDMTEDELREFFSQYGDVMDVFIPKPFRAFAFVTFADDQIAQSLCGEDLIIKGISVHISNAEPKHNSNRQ

T2: TDP-43 deltaN (UniProt Q13148 Q13148:102-414)
T2 chain: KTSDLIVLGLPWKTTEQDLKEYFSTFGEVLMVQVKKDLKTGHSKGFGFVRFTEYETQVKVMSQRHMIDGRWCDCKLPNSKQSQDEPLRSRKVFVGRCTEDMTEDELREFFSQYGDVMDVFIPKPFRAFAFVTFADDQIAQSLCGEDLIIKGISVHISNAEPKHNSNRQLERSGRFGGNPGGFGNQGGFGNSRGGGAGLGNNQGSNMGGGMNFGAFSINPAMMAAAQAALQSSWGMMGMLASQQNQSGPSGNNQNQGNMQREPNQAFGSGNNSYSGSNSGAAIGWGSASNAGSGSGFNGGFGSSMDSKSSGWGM


Assays:
[1] = target: T3, TDP-43 WT (UniProt Q13148 Q13148:1-414); test: FP; Kd dramatically lower than unmodified; values only in figure; conditions: tags: N-terminal His6-SUMO (Smt3), E. coli BL21(DE3), pET28b(+)-SUMO-TDP43
[2] = target: T3, TDP-43 WT; test: FP; apparent; 300 mM NaCl, 10 mM Tris pH 8.0; conditions: tags: N-terminal His6-SUMO (Smt3), E. coli BL21(DE3), pET28b(+)-SUMO-TDP43; label: FITC
Protocol: Each point is the average of >3 technical and 3 biological replicates, respectively (SEM).
Recombinant TDP-43 wild-type (WT) and constructs previously purified were serially diluted in a 1:2 ratio (from 75 to 0 nM) into a 300 mM of NaCl, 10 mM of Tris (pH 8.0), 5% glycerol, 5% sucrose, 1 mM of TCEP buffer solution. A(GU)₆ RNA labeled with fluorescein isothiocyanate (FITC) from IDT was used at a final concentration of 0.6, 1.3, 2.5, and 5 nM. […] The anisotropy measurements were performed in a Biotek SYNERGY Neo2 (BioSPX) plate reader with excitation and emission wavelengths of 480 and 520 nm, respectively. To assess the binding curves, the data were fitted as previously described. Data analysis was performed using GraphPad Prism 5.

[3] = target: T1, TDP-43 RRM1-2; test: FP; apparent; 300 mM NaCl; conditions: tags: N-terminal His6-SUMO; label: FITC
[4] = target: T2, TDP-43 deltaN; test: FP; apparent; 300 mM NaCl; conditions: tags: N-terminal His6-SUMO; label: FITC
[5] = target: T3, TDP-43 WT; test: EMSA; at least three TDP-43 bound per oligo; 150 mM NaCl, 2 mM MgCl2, Tris pH 8; conditions: tags: N-terminal His6-SUMO (Smt3), E. coli BL21(DE3), pET28b(+)-SUMO-TDP43; label: 5' 700 nm IR dye
[6] = target: T3, TDP-43 WT; test: FP; higher Kd than modified; values only in figure; conditions: tags: N-terminal His6-SUMO (Smt3), E. coli BL21(DE3), pET28b(+)-SUMO-TDP43

T3 sequence (Q13148 whole entry, one chain of several): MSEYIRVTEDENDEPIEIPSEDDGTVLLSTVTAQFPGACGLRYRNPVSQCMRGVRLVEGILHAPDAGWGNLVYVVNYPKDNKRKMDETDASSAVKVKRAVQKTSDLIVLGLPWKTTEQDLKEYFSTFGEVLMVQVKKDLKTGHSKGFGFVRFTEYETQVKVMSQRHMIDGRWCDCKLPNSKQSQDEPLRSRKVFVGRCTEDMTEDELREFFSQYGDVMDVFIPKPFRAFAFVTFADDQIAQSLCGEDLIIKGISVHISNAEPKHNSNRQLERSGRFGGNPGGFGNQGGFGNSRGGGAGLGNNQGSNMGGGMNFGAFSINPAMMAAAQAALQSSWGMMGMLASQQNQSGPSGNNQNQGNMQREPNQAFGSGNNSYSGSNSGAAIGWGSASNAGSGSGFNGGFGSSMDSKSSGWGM

| Binder | binding result [1] | binding result [6] | also measured |
| --- | --- | --- | --- |
| GAGAGAGCGCGTGCAGAGACTTGGTGGTGCATAA (XNA, 2'-OMe all; PS all linkages) [CLIP34 2OMe] | binds | – | – |
| AGUGUGUGUGUGU (ssRNA, 2'-OMe and PS unless otherwise noted (general statement)) [A(GU)6-FITC] | – | – | Kd [2]: 0.8 nM; Kd [3]: 0.8 nM; Kd [4]: 0.7 nM |
| GAGAGAGCGCGUGCAGAGACUUGGUGGUGCAUAA (ssRNA) [CLIP34 IR700] | – | – | binding result [5]: binds |
| GAGAGAGCGCGUGCAGAGACUUGGUGGUGCAUAA (ssRNA) [CLIP34 unmodified] | – | binds | – |
| AGTGTGTGTGTGT (XNA, 2'-OMe all; PS all linkages) [A(GU)6 2OMe] | binds | – | – |
| AGUGUGUGUGUGU (ssRNA) [A(GU)6 unmodified] | – | binds | – |
